Assay results as given in article PMC10054023, “Fabrication of Rapid Electrical Pulse-Based Biosensor Consisting of Truncated DNA Aptamer for Zika Virus Envelope Protein Detection in Clinical Samples”.

Experiments:
[1] = molecular target: T1, Zika virus envelope protein (Zika virus, UniProt A0A024B7W1 291-694); test: bead-based fluorescence binding assay; protein on magnetic beads; Bead assay: room temperature, 1 h, envelope protein 0.15 mg/mL on magnetic beads, aptamer 3 nM-1 uM, DIW wash; binding buffer not stated (folding predicted at 140 mM Na+, 5 mM Mg2+). Sensor: ACEF 10 min, read in 1 M KCl pH 7.; details: protein: commercial; label: 5' 6-FAM; stem-loops (mfold prediction)
hemoglobin = hemoglobin (horse, UniProt P01958;P02062 2-142;1-146); test: pulse voltammetry biosensor; no significant reactivity; Bead assay: room temperature, 1 h, envelope protein 0.15 mg/mL on magnetic beads, aptamer 3 nM-1 uM, DIW wash; binding buffer not stated (folding predicted at 140 mM Na+, 5 mM Mg2+). Sensor: ACEF 10 min, read in 1 M KCl pH 7.; details: protein: commercial; chain copies: 2;2; stem-loops (mfold prediction)
hemoglobin, sequence (P01958 2-142, chain 1 of 2): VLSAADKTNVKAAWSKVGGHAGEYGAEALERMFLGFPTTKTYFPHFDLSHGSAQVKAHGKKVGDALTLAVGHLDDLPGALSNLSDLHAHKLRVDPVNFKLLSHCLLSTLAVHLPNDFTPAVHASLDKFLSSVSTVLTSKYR
hemoglobin, sequence (P02062 whole entry, chain 2 of 2): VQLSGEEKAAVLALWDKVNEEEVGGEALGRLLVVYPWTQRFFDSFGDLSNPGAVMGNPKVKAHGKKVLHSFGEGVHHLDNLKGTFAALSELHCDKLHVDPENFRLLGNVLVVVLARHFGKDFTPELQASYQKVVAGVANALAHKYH

fibrinogen = fibrinogen (UniProt P02671;P02675;P02679 20-629;31-491;27-453); test: as above; details: protein: commercial; chain copies: 2;2;2; stem-loops (mfold prediction)
fibrinogen, sequence (P02671 20-629, chain 1 of 3): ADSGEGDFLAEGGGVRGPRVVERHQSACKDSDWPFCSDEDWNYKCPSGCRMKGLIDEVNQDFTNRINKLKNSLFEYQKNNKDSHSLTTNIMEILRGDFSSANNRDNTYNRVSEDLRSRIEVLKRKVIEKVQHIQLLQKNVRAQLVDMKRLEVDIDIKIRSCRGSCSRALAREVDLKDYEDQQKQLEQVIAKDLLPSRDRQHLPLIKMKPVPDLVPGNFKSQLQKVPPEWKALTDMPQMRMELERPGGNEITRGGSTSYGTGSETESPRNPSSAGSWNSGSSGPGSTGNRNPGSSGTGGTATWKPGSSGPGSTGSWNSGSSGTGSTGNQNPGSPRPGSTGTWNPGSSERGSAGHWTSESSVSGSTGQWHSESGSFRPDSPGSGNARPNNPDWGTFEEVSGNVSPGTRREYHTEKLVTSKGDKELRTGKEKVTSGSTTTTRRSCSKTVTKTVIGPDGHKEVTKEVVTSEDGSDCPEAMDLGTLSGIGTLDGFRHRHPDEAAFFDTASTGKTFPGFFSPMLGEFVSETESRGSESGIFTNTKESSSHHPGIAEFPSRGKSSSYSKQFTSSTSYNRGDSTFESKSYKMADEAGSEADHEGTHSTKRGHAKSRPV
fibrinogen, sequence (P02675 31-491, chain 2 of 3): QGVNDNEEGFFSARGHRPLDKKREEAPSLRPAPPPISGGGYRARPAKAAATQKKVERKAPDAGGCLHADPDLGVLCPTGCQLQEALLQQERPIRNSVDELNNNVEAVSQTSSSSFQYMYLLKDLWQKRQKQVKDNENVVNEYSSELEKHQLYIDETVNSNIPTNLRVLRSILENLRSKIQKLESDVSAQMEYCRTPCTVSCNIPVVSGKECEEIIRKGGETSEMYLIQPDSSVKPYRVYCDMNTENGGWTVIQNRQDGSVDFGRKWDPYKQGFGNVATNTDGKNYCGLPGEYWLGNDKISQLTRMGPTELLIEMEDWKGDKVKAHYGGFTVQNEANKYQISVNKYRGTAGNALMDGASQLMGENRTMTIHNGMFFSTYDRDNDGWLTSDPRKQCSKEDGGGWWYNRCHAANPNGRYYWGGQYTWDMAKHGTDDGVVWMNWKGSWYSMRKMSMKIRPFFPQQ
fibrinogen, sequence (P02679 27-453, chain 3 of 3): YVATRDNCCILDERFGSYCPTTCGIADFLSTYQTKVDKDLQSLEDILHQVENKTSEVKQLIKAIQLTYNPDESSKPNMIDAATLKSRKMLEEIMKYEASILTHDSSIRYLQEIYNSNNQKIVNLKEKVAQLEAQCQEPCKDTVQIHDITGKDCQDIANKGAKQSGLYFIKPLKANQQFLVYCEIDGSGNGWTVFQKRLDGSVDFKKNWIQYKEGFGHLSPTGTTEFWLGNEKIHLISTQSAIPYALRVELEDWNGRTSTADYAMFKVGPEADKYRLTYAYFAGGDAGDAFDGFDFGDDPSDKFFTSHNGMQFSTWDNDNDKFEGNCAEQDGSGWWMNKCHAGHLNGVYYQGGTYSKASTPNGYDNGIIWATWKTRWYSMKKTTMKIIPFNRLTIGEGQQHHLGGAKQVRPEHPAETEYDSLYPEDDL

myoglobin = myoglobin (horse, UniProt P68082 2-154); test: as above; details: protein: commercial; stem-loops (mfold prediction)
myoglobin, sequence (P68082 2-154): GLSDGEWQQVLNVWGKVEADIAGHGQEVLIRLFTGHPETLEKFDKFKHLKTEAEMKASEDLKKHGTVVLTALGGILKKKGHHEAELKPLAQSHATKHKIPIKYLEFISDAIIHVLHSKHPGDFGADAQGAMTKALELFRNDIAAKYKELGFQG

[2] = molecular target: T1, Zika virus envelope protein; test: pulse voltammetry biosensor; ACEF; read in 1 M KCl pH 7; LOD 90.1 pM; Bead assay: room temperature, 1 h, envelope protein 0.15 mg/mL on magnetic beads, aptamer 3 nM-1 uM, DIW wash; binding buffer not stated (folding predicted at 140 mM Na+, 5 mM Mg2+). Sensor: ACEF 10 min, read in 1 M KCl pH 7.; details: protein: commercial; stem-loops (mfold prediction)
[3] = molecular target: T1, Zika virus envelope protein; test: EMSA (8% TBE-PAGE); Kd slightly lower than truncated aptamer, value not given; […], aptamer 3 nM-1 uM, […]; binding buffer not stated ([…], read in 1 M KCl pH 7.; details: protein: commercial; stem-loops (mfold prediction)

**Q.** How did the Kd [1] turn out when TGCGCACTGAACGATCCTGCGTCAAGTTCAAGGTTGTG (structured_DNA) [truncated Zika aptamer (T-ZV apt), 5'-FAM] was run?
**A.** 333 ± 60.3 nM

**Q.** Does TGCGCACTGAACGATCCTGCGTCAAGTTCAAGGTTGTG (structured_DNA, thiol (SH), end not stated) [truncated Zika aptamer (T-ZV apt), thiolated] bind (hemoglobin)?
**A.** no binding

**Q.** Does TGCGCACTGAACGATCCTGCGTCAAGTTCAAGGTTGTG (structured_DNA, thiol (SH), end not stated) [truncated Zika aptamer (T-ZV apt), thiolated] bind (fibrinogen)?
**A.** no binding

**Q.** Does TGCGCACTGAACGATCCTGCGTCAAGTTCAAGGTTGTG (structured_DNA, thiol (SH), end not stated) [truncated Zika aptamer (T-ZV apt), thiolated] bind (myoglobin)?
**A.** no binding

**Q.** Does TGCGCACTGAACGATCCTGCGTCAAGTTCAAGGTTGTG (structured_DNA, thiol (SH), end not stated) [truncated Zika aptamer (T-ZV apt), thiolated] bind [2]?
**A.** binds

B1: original Zika envelope aptamer (ZV apt) (structured_DNA)
DNA: TGACACCGTACCTGCTCTAGTGCGCACTGAACGATCCTGCGTCAAGTTCAAGGTTGTGAAGCACGCCAAGGGACTAT
**Q.** Does B1 bind [3]?
**A.** binds
